US20240141045A1 (PRECIGEN, published 2024)

What was measured:
TGF-β1 [1] = molecular target: T1, TGF-β1 (UniProt P01137 279-390); assay: cell-based or functional assay
TGF-β2 = molecular target: T2, TGF-β2 (UniProt P61812 303-414); assay: SPR (Biacore 3000), fusion protein immobilised on CM5 chip, TGF-β2 injected
T2 sequence (looked up): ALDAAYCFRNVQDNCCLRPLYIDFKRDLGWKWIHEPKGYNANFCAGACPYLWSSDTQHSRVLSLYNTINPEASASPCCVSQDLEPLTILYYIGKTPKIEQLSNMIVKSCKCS
Experimental: (§1) Surface plasma resonance (SPR) analysis was performed using Biacore3000, CM5 chip, an amine-coupling kit, 10×HBS-P running buffer and Glycine for regeneration (GE Healthcare). […] Dissociation was allowed to proceed followed by a pulse of 10 mM Glycine (pH 1.5) for regeneration of the chip surface.

TGF-β1 [2] = molecular target: T1, TGF-β1; assay: SPR (Biacore 3000), fusion protein immobilised on CM5 chip, TGF-β1 injected
Experimental: as §1

TGF-β3 [3] = molecular target: T3, TGF-β3 (UniProt P10600 301-412); assay: SPR (Biacore 3000), fusion protein immobilised on CM5 chip, TGF-β3 injected
T3 sequence (looked up): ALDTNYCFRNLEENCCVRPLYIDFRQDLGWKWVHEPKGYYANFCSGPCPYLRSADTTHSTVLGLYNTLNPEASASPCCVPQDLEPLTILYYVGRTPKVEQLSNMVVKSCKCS
Experimental: as §1

TGF-β3 [4] = molecular target: T3, TGF-β3; assay: cell-based or functional assay

T1 sequence (P01137 279-390 limits assumed): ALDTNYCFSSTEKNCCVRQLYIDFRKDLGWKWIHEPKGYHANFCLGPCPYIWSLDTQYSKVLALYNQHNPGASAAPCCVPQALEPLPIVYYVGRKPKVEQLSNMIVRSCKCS

B1: Anti-PD1(VH6-VL5) IgG4-TGFβRII (antibody)
heavy: QVQLVESGGGVVQPGRSLRLDCKASGITFSNSGMHWVRQAPGKGLEWVAVIWYDGSKRYYADSVKGRFTISRDNSKNTLFLQMNSLRAEDTAVYYCATNDDYWGQGTLVTVSSASTKGPSVFPLAPCSRSTSESTAALGCLVKDYFPEPVTVSWNSGALTSGVHTFPAVLQSSGLYSLSSVVTVPSSSLGTKTYTCNVDHKPSNTKVDKRVESKYGPPCPSCPAPEFLGGPSVFLFPPKPKDTLMISRTPEVTCVVVDVSQEDPEVQFNWYVDGVEVHNAKTKPREEQFNSTYRVVSVLTVLHQDWLNGKEYKCKVSNKGLPSSIEKTISKAKGQPREPQVYTLPPSQEEMTKNQVSLTCLVKGFYPSDIAVEWESNGQPENNYKTTPPVLDSDGSFFLYSRLTVDKSRWQEGNVFSCSVMHEALHNHYTQKSLSLSPGKGGGGSGGGGSIPPHVQKSVNNDMIVTDNNGAVKFPQLCKFCDVRFSTCDNQKSCMSNCSITSICEKPQEVCVAVWRKNDENITLETVCHDPKLPYHDFILEDAASPKCIMKEKKKPGETFFMCSCSSDECNDNIIFSEEYNTSNPD
light: not shown
notes: IgG4 antibody with TGFβRII ECD fused to the C-terminus of the heavy chain; also called anti-PD-1 IgG4 antibody (VH6-VL5)-TGFβRII fusion protein; VH6-IgG4(wt)-linker-ECD with VL5
TGF-β1 [1]
  IC50; neutralisation of TGF-β1 signalling, HEK-Blue TGF-β reporter cells (SEAP, absorbance 620 nM): 14.9 pM
TGF-β2
  Kd: 859 pM
TGF-β1 [2]
  Kd: 5.22 pM
TGF-β3 [3]
  Kd: 2.19 pM
TGF-β3 [4]
  IC50; neutralisation of TGF-β3 signalling, HEK-Blue TGF-β reporter cells (SEAP, absorbance 620 nM): 6.7 pM
